A short description of this series: protease stability score; higher = more stable; yeast display proteolysis, trypsin and chymotrypsin.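 Note: relative to predicted unfolded state with 0 unfolded-like and 1 meaning tenfold more protease.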
“SEDDRENHRFMEQFLHDWETGDEDSLRKLADPDVKVRINGVDLHGWSFFEDYLRRVDHIDDFKIDHVEIQGDKIKIHGQQHGRIDGRRDTYKVQNFFIKIDGKWRLKMVINR” registered a protease stability score of 1.34.

The sequence “SEDDSDLEEYLRLWVKAWMTGDEDLLRTLLDPHTRFQSHVNGKEVERHGMEVVSHWLRKFKNIRFEVHHVHVVNGVLYHETRVKFDGVRIETELNAIVVDGKNKFLNIHIK” showed a protease stability score of 0.299. The result for “SEDEDAFNELLKIHVEALHTGDWRSIRELLDPNARVRIDGKEYVGRESVEEHLRRIKNLTIHEIRIDDIRIQGDYVHVDGHVRGHFNGQEELHHVEFIMLKVNGRWRIKEIRIK” reads 2.26; that for “SEDEDELKEWIRIIIHLLTTGNEDLIENNADPNVRIEFNGKTYHGMEDFHEWMRYAINELRFHDFRLDSFRIVNGKVDLNTTLIGNINGVLTRRETRMIIIKVNGRWLIHALVFK”, 1.75; that for “SEDEDFAKKWTDEILTAFLTGDWKLLSDLVDPNVRVIYGEFHFHGREQTIKWLEHHYREIRIHDYKIKHIEVQGEKVIVDGEVDRHYNGRRHRIHTEIIIIIFNGVIREIEFREN”, 2.05. With “SEDEDFMQKALKHDWELWETGDEEKIQKQADPHVRMDFDGVEYHGMELFSELLDRYLRKVKGLQIRLRHVHVKIINGQAIMDIDGTVNINGREIRLHIKIFNEKINGKWIHSSIRFEFR”, the protease stability score came out at 1.21. The result for “SEDEDHARLMFELLLRMITTGDEESLRELVDPNVRVSVDGVDLHGWDSLSKFLKHIRIRVDHSEMHDMRVIDGVLQANTHMQITVEFNGRRVQRQVETRVEVVKINGKWAIHRFSVH” reads 2.55; that for “SEDEDIAKEILRLLLEALRTGDWHTVHRLMDPHARVHVNGRDFIGMEEVLRWLEEFLRHMRLRSLTVHDIRIFDGRLHVDSRSDVEIDGRRISIETEVIILKVDGRWHVKSIIFR”, 1.36. “SEDEDISRNFLELEWKKHMTGDWRTFAENIDPNARVDIDGVEFHGRELISRLMHEKIRKHGVKIKHLHIDHVSSQGDKIHINTTLVGLFNGRDTHLEVHIVITKINGRWVLQEFHFD”: the protease stability score turned out to be 0.591. For the sequence “SEDEDLFHHVLHVWLNAMETGDFEVFKHLLDPRTKEHQGDKHLIGREDALRKFREEWEKYPNMRVEIRVDDWDIQGNKIRAKVHIIIRQGDKTYSVEIDLIMVKVNGRWFIHSIIIH”, the protease stability score stood at 0.966.

“SEDEDLSRHLSELWLDALRTGDEKSTHKMADPHTRVEVGDKTDHGMEVWNRIFERFKGARLEITEWRTIGEKVHYHMHIEYGDKHVDVEIEIIQINGQVKEFIIRVRIK” registered a protease stability score of 0.249. For the sequence “SEDEDNMHEFFRIWSRVQETGDEEAMLKLMDPNVRTDINGVELHGREEFEKELHRLIFEWGFDRFVVHIEHEDIFNGRIHVRSRVIYGDKEVHVIIHVYKVNGQWRVEELRFE”, the protease stability score was determined as 1.41.

As to “SEDEEAAHRFLQMFLSTSHTGDEKESRELADPHVRIDIDGQKHHGRHEWVKVFRHLRIHNIEIKDYHVIDGRLRLDYKVDLEVGDKKIEHRLHIDVEKIDGRWEIQRVHLI”, the protease stability score was determined as 1.58. As for “SEDEEAAHWLTLVLIELFRTGDEDSFTKLLDPNARMHVGDKDFHGRHHILHWILHFLRELGVDHRDMKVEDQHFYDGRLELHVTIIIIVGDKKIRIESHFYVEKVNGRWLVKKIHIH”, the protease stability score worked out at 1.41. The result for “SEDEEAAKHMFELLVHHIETGDEESLRKLLDPNVRMDIDGRIIHGREIFARQMFLESLHIRTEFRLKHVDTIGEKLHLFTEVTYKINGVHIKRDTRVIILKVDGRWVFHSIRFE” reads 0.951; that for “SEDEEAAKRLTDLLIHNWETGNEDELHRLIDPNMREDVNGKEFHGWSYMVHFLRRIDHVFSHITIHDIKSVGDYVYIDGTVDEIFHIGDSKIRINIRVTIIILKINGRWIMTHVHVK”, 1.32. The result for “SEDEEAIERFLREFVKAERTGDEKTILSLMDPHVRIHQGDWEVHGRDDLRHFFHRIDHVRSRFHLTHVDHQGDKAIFKGTVEYHIHVDGKDIHSTSSVDIHVRKINGRWLMHNVHIE” reads 1.63. For “SEDEEAIRHALRIFEEVLQTGDEHSIENLFDPNTRIDINGKHLHGWHKLEEWLSRFDHLEVHVHIHSSNVFDGRIHNDTRVKMHLYINGKIIELHQETHIISKKVNGRWYVKMIIIR” the value was 1.17; for “SEDEEALKKAIDLLFESLLTGDERELEKLADPNYRMEVNGKEIHGRELFSKTMIDILQRLGIDHIDFRIEHDETQGDKVIIEGKLIFKVGDKHIEIKSRLIVLKVDGQWILRHSRMH”, 2.05; for “SEDEEASKEMLERLIESIKTGDWRHDSNMVDPHARFRVGDKEFHGRDDLEHLVKHLGIKHVEVQHVRTYGNKMELHGWERFNGREVRVELHFVKIDGQWVLTEYRVR”, 0.616. Turning to “SEDEEAVHKMLEMWIKHINTGDERHLHKLADPNYRVEQGDKELHGRHAYEYVFHQFDHWKEIRIEEVKTYDGRVKIKGREVYHINGQEIESEVRIITTKVDGQWHLKSILFK”, the protease stability score was 0.525. For “SEDEEAVRRILKKLLQSHETGDFRMFDRMLDPHVRLDVNGREHIGRESVHRVVEELRIEDMRLTDMHSQGNYLDIDGRLDGSVNGKKDTYRVRLVILKVDGRWIIEEMRIG” the value was 1.95. For “SEDEEAVRRLIRMLVEWESTGDFESVLRLFDPHARYRIDGVDLHGRHAWERLYKEIRINSVRVKRIEMQGDKVHVDSRLRGEIDGRETDLEVEIIIRKVNGRWVIEEVRIH” the value was 2.2; for “SEDEEDAERLIRELEHAWHTGDEKYLWEMIDPHARFIIGDKEFHGRDLQLRILHRLIKELGVSRFELHIEHFEVIDGRLHTEGRLNVNGRILKTHLILRKIDGRWLIKSDELR”, 1.49; for “SEDEEDARRMVEIWKRSLETGDFKRILELMDPNTKYLFNGREYHGRHFVSRLFTEELERIKGARIEEESLEIQGNKVILHTRLHINGQHFKQITIIMKIDGKWFLESFSVE”, 2.01. The result for “SEDEEDFERAIKLYETLNATGNEEEYSKMVDPHVKMHFNGVDFHGREKMVEVVHKLGVKHLETKSIRIIGDFLRSRFENDVDGRKIEQEVQMLKINGRWLIKYISFH” reads 0.706; that for “SEDEEDFERAMKLLMHDIRTGNEESLNRLFDPNVKININGKELWGREKWIEFLERVDHLDVHDMKIRHLDIQGEKVRAEVHIDRRIKIGDKETRVKVDIRMIAVKVNGRWLLREISVE”, 2.1. “SEDEEDLKRIVELLVRALKTGDEDLIRHLADPHVRLEVGDKEHHGREEYTRWAENFVERIDHVNIHIKRMTTIGNYLQMDVRLEERFDGRRVELRHYLIILKVDGRWVIKEVQIE” returned a protease stability score of 1.25. For “SEDEEDLRRIFELLMELWLTGDERHMEHLIDPNAKLHYDGVEYHGREDARRLIHRFDVFEDARVRRVRLIDGQVRMDTHFIGRVDGRRIQVDSIIFMRKINGRWVSKEEVYV”, the protease stability score was 1.34. As to “SEDEEDMKKASETISEEYHTGDEDAHKKLMDPNARMLYGDKDTHGREHWEHVIKRFGFDHVIIKRIEIHVYDGRIDLHMDVRLIVNGQNLEVRLIIIVRKINGRWRIESVNIHIE”, the protease stability score is 0.061. Turning to “SEDEEDMTHAIEEIEHFWMTGDWKKMHDLADPHVKTIINGREQHGRRHMIEAIKDSRRRLGVNYIHSVSNKHFDLQGNKVHSDIRIDVDVNGKHIDLELEVDIVKVDGKWQLSHLKIV”, the protease stability score was determined as 0.931. As for “SEDEEDSKEAFRLVEEILITGNEEEIDDMADPHTRVQIGNKIWHGRELFLDWVREHLRRADVVRDVHLTHESAYDGKVELHMKVVIHYGDKTIDTEMVFVSRKIDGKWITHSITMV”, the protease stability score was determined as 1.18. The result for “SEDEEDVEQWVRIWFDLLLTGDEDSLRKLIDPHARVEVNGVIQIGREEVARFLSQMRVHDSTLRDIKIYDGRVEIDNEEDVEFNGQRKRVKVILISNKFDGRWTNEHEKYE” reads 0.449; that for “SEDEEEAERFLRMFFELIRTGDERTIERLLDPHVRIDIDGRDIHGRERAQEHVQHWYRHIRIEDDQIKEFHIQGNKVEHHGRRRGSFNGVTYEVTVHETVLKVDGVWYMKEVHVR”, 0.891. Regarding “SEDEEEAHEFLKRLDNAHRTGDEDFVYEQMDPDVRIDINGREWHGRELAREYLSIYGIKVMEVKRVNVYDGRINVDGHVEFNGVRNKTTIIMQKIDGRWRVKSITIK”, the protease stability score turned out to be 1.41. “SEDEEEAKRSIELEMRSWRTGDEDAWLRLADPDVKFVIDGREFHGREALEFLQNRFDHIEMREHEVRHVDLQGDKIHMDTRLRMILIYNGVEIEKETRTEIVVKKIDGRWILHQVEYR” showed a protease stability score of 0.724.

In the case of “SEDEEEATHLSRVLIELLKTGDEEMLEHLADPNDRNDFNGRVKHGRELVTKMLRKLMTDLGIDHIEHVTLRRLEVQGEWVKFNFEIIGRVNGRELSFRVRFIMEKVDGKWRLSERHTI”, the protease stability score came to 1.71. The result for “SEDEEEERRVEKLWSKALHTGDEEELHRLADPNVLLNFDGVEYIGREEFLKHFRRLVHEARIEFIILKDSKLIDGRLHIHGIDLVTQGDKRIELKSEVIVLKINGRWIIHHIHIH” reads 0.75. For “SEDEEEFRRWLEEMVRALITGDEDRLKELFDPHAQVHVNGKERHGRDELVKAFRETLEDFGVKHMRVTSSSVQGDYVIIHIEMHVDGKPIQTDIRVIIVNGKVHKFEVQLH” the value was 1.89; for “SEDEEEHKEMLRILIHDNRTGDEDSFRDMFDPNVRFEQGEWSAHGRDWAEHVMRRADHVKLDLQTMDTQGDKVILHGRLILLQGEKRIDEKVIFIIRKIDGKWILESVHFH”, 1.21; for “SEDEEEIKKAVEILLKELRTGDEDSFEKNLDPNARVHDENHRSHGREEVTKWFYEFRKKFKNARHTFEHIIVVGDKVINHMRVEIDGVTINSLWFIKKVDGRWVITSIHIN”, 2.26. In turn, “SEDEEEIKTTFENLDRSIRTGDEDHVRKLADPTMRLDWNGQEFHGREWFSKHLSEFVKRADHFEIRLHDLDMVNGKLHIDGQLILIINGRTQILKLHLVFIKVDGRWILDNVQVN” returned a protease stability score of 1.04.

“SEDEEEISEFTRMHLEDIITGDEDTLRRLVDPNVRIFIDGKHIHGMETYVKRLDENFKHLGVDHVEIRIHQIRLINGRARVDGVLIIEIGDKREERRTFLILLKVNGRWVMEEYRIH” showed a protease stability score of 1.07. The result for “SEDEEEKHKFAEIFWHAHLTGDFDTLKRLVDPNVRIRIGDKDLHGREHLLEELRKIKNLTIEERHVDIQGEWMRMEVVHYVNGVHIDTTIHIDVVNGRIRRIVFNIV” reads 2.47; that for “SEDEEELERELRLWLSLVLTGDEDIIRELADPHARSRVNGQKSHGRENLLQLFREHMEIMGAKVVDIEEYHIQGEKIILIMRVHVGDKEYELRIEIHVFNGRLKEVNLHFK”, 1.52; that for “SEDEEELNRVLKELLHAMVTGNEELWSRLVDPNYRVTVGDFRLHGMEEYSRILHEWRVEIREFRITSRTTVDGRIFIDAHFTEEIKQGDKVTFVNTRIRLIMIKVDGRWHVESREIR”, 0.484. “SEDEEESEFAVRELSKIIKTGDPDRFHHLADPNMRFIYGDKREHGMESWVSHLHRLGIENVEVHIHDWSVFNGQVVIDGRINVNGREVNAEFVMRKIDGRWHITEVRER” gave a protease stability score of 0.611.

Values taken from the NTF2 design screens of Basanta et al. (2020).
